Laboratory results reported in publication doi:10.1101/602623.

T1: Cas1-2 integrase complex Wt (Escherichia coli (type I-E), UniProt Q46896;P45956 1-305;1-94)
T1 sequence 1: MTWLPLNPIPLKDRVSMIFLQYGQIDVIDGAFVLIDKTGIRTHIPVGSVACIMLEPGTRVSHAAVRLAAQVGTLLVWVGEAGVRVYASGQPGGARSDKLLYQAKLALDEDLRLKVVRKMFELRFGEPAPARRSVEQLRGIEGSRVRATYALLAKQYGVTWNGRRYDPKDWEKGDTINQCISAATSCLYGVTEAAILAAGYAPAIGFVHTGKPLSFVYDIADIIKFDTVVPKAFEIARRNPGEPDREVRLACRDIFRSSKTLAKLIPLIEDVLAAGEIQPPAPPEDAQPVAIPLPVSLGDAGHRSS
T1 sequence 2: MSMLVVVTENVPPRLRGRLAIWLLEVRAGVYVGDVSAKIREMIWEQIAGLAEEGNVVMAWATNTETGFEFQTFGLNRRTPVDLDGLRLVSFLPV

T2: Cas1-2 Y22A (Escherichia coli (type I-E), UniProt Q46896;P45956 1-305;1-94, Y22A)
T2 sequence 1: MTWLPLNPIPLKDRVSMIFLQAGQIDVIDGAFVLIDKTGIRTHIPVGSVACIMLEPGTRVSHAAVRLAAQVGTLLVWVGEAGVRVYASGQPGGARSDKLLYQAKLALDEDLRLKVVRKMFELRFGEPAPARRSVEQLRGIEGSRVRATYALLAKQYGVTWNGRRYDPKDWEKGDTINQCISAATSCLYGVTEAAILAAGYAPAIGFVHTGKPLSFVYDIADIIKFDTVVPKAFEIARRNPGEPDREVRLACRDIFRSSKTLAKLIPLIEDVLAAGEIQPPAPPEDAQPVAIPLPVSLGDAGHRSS
T2 sequence 2: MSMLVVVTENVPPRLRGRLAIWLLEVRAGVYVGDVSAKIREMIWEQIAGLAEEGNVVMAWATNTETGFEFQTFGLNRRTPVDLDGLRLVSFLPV


Tests used:
[1] = molecular target: T1, Cas1-2 integrase complex Wt; assay: EMSA
[2] = molecular target: T1, Cas1-2 integrase complex Wt; assay: T5 exonuclease footprinting
Cas1-2 Y22A = molecular target: T2, Cas1-2 Y22A; assay: EMSA

| Binder | Kd [1] | binding result [2] | Kd (Cas1-2 Y22A) |
| --- | --- | --- | --- |
| P23[3'-10] (dsDNA) DNA 1: ATTTACTACTCGTTCTGGTGTTTCTCGTCAGGG DNA 2: AAACACCAGAACGAGTAGTAAATTGGGCTTGAG | 286 nM |  |  |
| P63mPAMT* (dsDNA) DNA 1: CTCCGCGCTGTAGCCCTCACCACTGTTGTGCACGACGACACCAGTCCGTGGCGTTATCCAGCT DNA 2: AGCTGGATAACGCCACGGACTGGTGTCGTCGTGCACAACAGTGGTGAGGGCTACAGCGCGGAG |  | binds |  |
| P63 (dsDNA) DNA 1: CTCCGCGCTGTAGAAGTCACCATTGTTGTGCACGACGACATCATTCCGTGGCGTTATCCAGCT DNA 2: AGCTGGATAACGCCACGGAATGATGTCGTCGTGCACAACAATGGTGACTTCTACAGCGCGGAG | 831 nM |  | 6220 nM |
| P63mPAMB* (dsDNA) DNA 1: CTCCGCGCTGTAGCCCTCACCACTGTTGTGCACGACGACACCAGTCCGTGGCGTTATCCAGCT DNA 2: AGCTGGATAACGCCACGGACTGGTGTCGTCGTGCACAACAGTGGTGAGGGCTACAGCGCGGAG |  | binds |  |
| P23[3'-5] (dsDNA) DNA 1: ATTTACTACTCGTTCTGGTGTTTCTCGT DNA 2: AAACACCAGAACGAGTAGTAAATTGGGC | 254 nM |  |  |
| P33 (dsDNA) DNA 1: GCCCAATTTACTACTCGTTCTGGTGTTTCTCGT DNA 2: ACGAGAAACACCAGAACGAGTAGTAAATTGGGC | 2660 nM |  |  |
